According to the supplement of paper PMC10567573:

Assay: protein stability index of a GFP-peptide fusion (GPS, HEK-293T) (PSI 1-6); higher = more stable
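Also: lentivirally expressed fusions sorted by FACS into six bins by GFP to DsRed ratio, PSI derived from sequencing read proportions per bin multiplied by bin number.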

KLNCDPSRIYKPQTRLKRKQPVRK [DFFB WT] gave a protein stability index (parent: IOH26584_53, c terminus: a fixed tail appended) of 3.47.

Protein LEAAEVILEHAHRGEQTTSQVSWE has a protein stability index (parent: IOH26591_31, c terminus: a fixed tail appended) of 4.39.

For LQEPGVFSPTPPQQFQPAGTDQVC, the protein stability index (parent: IOH26591_36, c terminus: a fixed tail appended) was 3.96.

Protein ILGKVILWILHLLLECYIQYHHSK has a protein stability index (parent: IOH26789_17, c terminus: a fixed tail appended) of 2.97.

Protein LWILHLLLECYIQYHHSKIRNRGY has a protein stability index (parent: IOH26789_18, c terminus: a fixed tail appended) of 2.02.

Protein CIQQILEAVLHCHQMGVVHRDLKP has a protein stability index (parent: IOH26807_20, c terminus: a fixed tail appended) of 2.46.

Protein ILLVGYPPFWDEDQHRLYKQIKAG has a protein stability index (parent: IOH26807_35, c terminus: a fixed tail appended) of 2.33.

Work on LELKFVSSLRRQFEFSVDSFQIVL yielded a protein stability index (parent: IOH26845_27, c terminus: a fixed tail appended) of 3.08.

Work on FQEAMTHLQHKLICTRKPEEIRGG yielded a protein stability index (parent: IOH26845_36, c terminus: a fixed tail appended) of 2.91.

Work on YVKAKKSIDKDEEFAGSSPQSSKS yielded a protein stability index (parent: IOH26921_28, c terminus: a fixed tail appended) of 3.04.

Work on FSPDFTLRNTLKSTSEDSLVKQEC yielded a protein stability index (parent: IOH26921_45, c terminus: a fixed tail appended) of 1.89.

Protein YCNFNKYIPRRLEEAAMQKCLVTE [RSAD1 WT] has a protein stability index (parent: IOH26922_10, c terminus: a fixed tail appended) of 2.08.

HDPLWRRHCKKYWLISEEEKTQKN gave a protein stability index (parent: IOH26934_9, c terminus: a fixed tail appended) of 2.91.

FIDTYSDVGRYIDHYAAIKKAWDD showed a protein stability index (parent: IOH26934_14, c terminus: a fixed tail appended) of 1.85.

AGGFQQRQGLKYCLPLTFCIHTGL gave a protein stability index (parent: IOH26934_31, c terminus: a fixed tail appended) of 2.73.

GGFPIIRDQIFRYVHDPECVATTG showed a protein stability index (parent: IOH26934_44, c terminus: a fixed tail appended) of 1.75.

Work on DEEERRRRVFDVPIRRRRCSRLF yielded a protein stability index (parent: IOH26934_79, c terminus: native) of 2.81.

Work on FLGSSFSPVRCGGPGDASPRGCGA yielded a protein stability index (parent: IOH27052_23, c terminus: a fixed tail appended) of 1.95.

With INPFTPDSLLLHSSGQCRRRKRTY the protein stability index (parent: IOH27052_40, c terminus: a fixed tail appended) was 3.35.

FISRTSIPNAASEEGDEDDWASNK showed a protein stability index (parent: IOH27052_73, c terminus: a fixed tail appended) of 4.02.

Protein MTVKPAKAASLARNLAKRRRTYLG has a protein stability index (parent: IOH27062_1, c terminus: a fixed tail appended) of 2.85.

For KAASLARNLAKRRRTYLGGAAGRS, the protein stability index (parent: IOH27062_2, c terminus: a fixed tail appended) was 2.6.

With LELQRQREARKRALARKQAQEQLR the protein stability index (parent: IOH27062_37, c terminus: a fixed tail appended) was 3.77.

VDVQTELYLEEIADRIIEVDMECQ gave a protein stability index (parent: IOH27062_43, c terminus: a fixed tail appended) of 2.16.

For FIPAKTGKDVATQILEGELFDFDL, the protein stability index (parent: IOH27062_49, c terminus: a fixed tail appended) was 1.77.

QRLEEQERRHREEKERRKKQQWEI showed a protein stability index (parent: IOH27062_61, c terminus: a fixed tail appended) of 4.62.

Work on TRKLSPGKKRCKDIKRLLVNFMYL yielded a protein stability index (parent: IOH27102_46, c terminus: a fixed tail appended) of 2.32.

With QEKLQVLMAEGLLPAVKVFLDWLR the protein stability index (parent: IOH27102_108, c terminus: a fixed tail appended) was 2.44.

In the case of TNPDLIIVCAQSSQSLWNRLSVLL, the protein stability index (parent: IOH27102_112, c terminus: a fixed tail appended) is reported as 2.77.

FVSIAQSEQESLLQQAQAQFRMAQ gave a protein stability index (parent: IOH27102_133, c terminus: a fixed tail appended) of 2.09.

TFGDHHKDRRFAYGRSDVVVLCFS [RHOBTB1 WT] showed a protein stability index (parent: IOH27118_15, c terminus: a fixed tail appended) of 1.99.

Protein KQTIGNSCKACGYRGMLDTHHKLC [EIF5 WT] has a protein stability index (parent: IOH27132_20, c terminus: a fixed tail appended) of 3.1.

Work on KLLSVIVWMLMLLLAVPNIILTNQ yielded a protein stability index (parent: IOH27142_24, c terminus: a fixed tail appended) of 3.1.

For KKIFKSHLKSSRNSTSVKKKSSRN, the protein stability index (parent: IOH27142_36, c terminus: a fixed tail appended) was 3.96.

Work on ITYPPGVKEISDKISKEEMVRRLK yielded a protein stability index (parent: IOH27247_3, c terminus: a fixed tail appended) of 3.62.

In the case of IYKKYALQSAAGKDAAKQIAWIKD, the protein stability index (parent: IOH27247_70, c terminus: a fixed tail appended) is reported as 2.16.

RPRRYVQPPEMIGPMRPEQFSDEV gave a protein stability index (parent: IOH27258_3, c terminus: a fixed tail appended) of 3.67.

In the case of QPPEMIGPMRPEQFSDEVEPATPE, the protein stability index (parent: IOH27258_4, c terminus: a fixed tail appended) is reported as 5.04.

With LNAELEEKMMQEAEKLKAQGEYSR [CCDC89 WT] the protein stability index (parent: IOH27358_17, c terminus: a fixed tail appended) was 4.98.

Protein SAIYKWITDNFCYFRHADPTWQNS [FOXJ1 WT] has a protein stability index (parent: IOH27374_25, c terminus: a fixed tail appended) of 2.69.

Protein FQRAMHDYNQAEMKQRDNCKIRIQ [STX11 WT] has a protein stability index (parent: IOH27407_24, c terminus: a fixed tail appended) of 2.68.

MLWVQRKRRRKETSECPSDKDKSP gave a protein stability index (parent: IOH27431_1, c terminus: a fixed tail appended) of 2.93.

With TSECPSDKDKSPESHKAKNESWIK the protein stability index (parent: IOH27431_3, c terminus: a fixed tail appended) was 3.1.

Work on RALEEVEMKLQKNFLTQRENTIAG yielded a protein stability index (parent: IOH27431_29, c terminus: a fixed tail appended) of 3.73.

Work on GHSHHSHHGHPSHQSHSLPNRRH yielded a protein stability index (parent: IOH27431_35, c terminus: native) of 2.57.

Protein LLIPKEDGVITASEDRTIRVWLKR has a protein stability index (parent: IOH27506_6, c terminus: a fixed tail appended) of 2.04.

Work on FWNIKQMWDTKTLGLRQHHCRKCG yielded a protein stability index (parent: IOH27506_50, c terminus: a fixed tail appended) of 2.1.

For FNYSVGFKDLNESLNALEDQDLDA, the protein stability index (parent: IOH27581_8, c terminus: a fixed tail appended) was 4.47.

In the case of ADPVLDLPLPPPPPEPLSQVSMWD, the protein stability index (parent: IOH27581_23, c terminus: a fixed tail appended) is reported as 4.59.

Work on LPLPPPPPEPLSQVSMWDQRWQDH yielded a protein stability index (parent: IOH27581_24, c terminus: a fixed tail appended) of 3.74.

For PPEPLSQVSMWDQRWQDHQPLLPI, the protein stability index (parent: IOH27581_25, c terminus: a fixed tail appended) was 3.15.

Work on SQVSMWDQRWQDHQPLLPITDVP yielded a protein stability index (parent: IOH27581_27, c terminus: native) of 2.45.

Protein TVHEVDIFRCFCPVFLHSQMLWEL [FAM116A WT] has a protein stability index (parent: IOH27644_45, c terminus: a fixed tail appended) of 3.
